Consider 3 molecules from patent publication US20140363428A1 (Chugai, published 2014).

B1: Fv-4-F947 (antibody, human IgG1, kappa)
heavy: QVQLQESGPGLVKPSETLSLTCAVSGHSISHDHAWSWVRQPPGEGLEWIGFISYSGITNYNPSLQGRVTISRDNSKNTLYLQMNSLRAEDTAVYYCARSLARTTAMDYWGEGTLVTVSSASTKGPSVFPLAPSSKSTSGGTAALGCLVKDYFPEPVTVSWNSGALTSGVHTFPAVLQSSGLYSLSSVVTVPSSSLGTQTYICNVNHKPSNTKVDKKVEPKSCDKTHTCPPCPAPELLGGPSVFLFPPKPKDVLYISRTPEVTCVVVDVSHEDPEVKFNWYVDGVEVHNAKTKPREEQYNSTYRVVSVLQPLHADWLNGKEYKCKVSNKALPAPIEKTISKAKGQPREPQVYTLPPSRDELTKNQVSLTCLVKGFYPSDIAVEWESNGQPENNYKTTPPVLDSDGSFFLYSKLTVDKSRWQQGNVFSCSVMHEALHYHVTQKSLSLSP
light: DIQMTQSPSSLSASVGDSVTITCQASTDISSHLNWYQQKPGKAPELLIYYGSHLLSGVPSRFSGSGSGTDFTFTISSLEAEDAATYYCGQGNRLPYTFGQGTKVEIERTVAAPSVFIFPPSDEQLKSGTASVVCLLNNFYPREAKVQWKVDNALQSGNSQESVTEQDSKDSTYSLSSTLTLSKADYEKHKVYACEVTHQGLSSPVTKSFNRGEC
B2: Fv-4-F1059 (antibody, human IgG1, kappa)
heavy: QVQLQESGPGLVKPSETLSLTCAVSGHSISHDHAWSWVRQPPGEGLEWIGFISYSGITNYNPSLQGRVTISRDNSKNTLYLQMNSLRAEDTAVYYCARSLARTTAMDYWGEGTLVTVSSASTKGPSVFPLAPSSKSTSGGTAALGCLVKDYFPEPVTVSWNSGALTSGVHTFPAVLQSSGLYSLSSVVTVPSSSLGTQTYICNVNHKPSNTKVDKKVEPKSCDKTHTCPPCPAPELLGGPSVFLFPPKPKDTLYISRTPEVTCVVVDVSHEDPEVKFNWYVDGVEVHNAKTKPREEQYNSTYRVVSVLTVLHQDWLNGKEYKCKVSNKALPAPIEKTISKAKGQPREPQVYTLPPSRDELTKNQVSLTCLVKGFYPSDIAVEWESNGRPENNYKTTPPVLDSDGSFFLYSKLTVDKSRWQQGNVFSCSVMHEALHYHVTQKSLSLSP
light: DIQMTQSPSSLSASVGDSVTITCQASTDISSHLNWYQQKPGKAPELLIYYGSHLLSGVPSRFSGSGSGTDFTFTISSLEAEDAATYYCGQGNRLPYTFGQGTKVEIERTVAAPSVFIFPPSDEQLKSGTASVVCLLNNFYPREAKVQWKVDNALQSGNSQESVTEQDSKDSTYSLSSTLTLSKADYEKHKVYACEVTHQGLSSPVTKSFNRGEC
B3: Fv-4-F1058 (antibody, human IgG1, kappa)
heavy: QVQLQESGPGLVKPSETLSLTCAVSGHSISHDHAWSWVRQPPGEGLEWIGFISYSGITNYNPSLQGRVTISRDNSKNTLYLQMNSLRAEDTAVYYCARSLARTTAMDYWGEGTLVTVSSASTKGPSVFPLAPSSKSTSGGTAALGCLVKDYFPEPVTVSWNSGALTSGVHTFPAVLQSSGLYSLSSVVTVPSSSLGTQTYICNVNHKPSNTKVDKKVEPKSCDKTHTCPPCPAPELLGGPSVFLFPPKPKDTLYISRTPEVTCVVVDVSHEDPEVKFNWYVDGVEVHNAKTKPREEQYNSTYRVVSVLTVLHQDWLNGKEYKCKVSNKALPAPIEKTISKAKGQPREPQVYTLPPSRDELTKNQVSLTCLVKGFYPSDIAVEWESNGEPENNYKTTPPVLDSDGSFFLYSKLTVDKSRWQQGNVFSCSVMHEALHYHVTQKSLSLSP
light: DIQMTQSPSSLSASVGDSVTITCQASTDISSHLNWYQQKPGKAPELLIYYGSHLLSGVPSRFSGSGSGTDFTFTISSLEAEDAATYYCGQGNRLPYTFGQGTKVEIERTVAAPSVFIFPPSDEQLKSGTASVVCLLNNFYPREAKVQWKVDNALQSGNSQESVTEQDSKDSTYSLSSTLTLSKADYEKHKVYACEVTHQGLSSPVTKSFNRGEC

T1 sequence (P55899 24-297 limits assumed, chain 1 of 2): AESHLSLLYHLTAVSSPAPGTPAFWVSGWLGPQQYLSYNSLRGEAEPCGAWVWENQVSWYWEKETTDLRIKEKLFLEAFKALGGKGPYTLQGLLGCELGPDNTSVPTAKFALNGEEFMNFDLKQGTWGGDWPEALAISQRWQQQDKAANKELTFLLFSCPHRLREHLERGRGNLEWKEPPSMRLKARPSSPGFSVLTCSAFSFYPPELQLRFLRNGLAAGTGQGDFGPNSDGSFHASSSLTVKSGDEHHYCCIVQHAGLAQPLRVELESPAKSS
T1 sequence (P61769 21-119 limits assumed, chain 2 of 2): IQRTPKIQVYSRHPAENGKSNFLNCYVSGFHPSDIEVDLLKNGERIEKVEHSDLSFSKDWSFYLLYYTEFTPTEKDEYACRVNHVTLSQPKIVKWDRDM

The test has as its target T1, soluble human FcRn (human, UniProt P55899 24-297; P61769 21-119).
T1 construct: Heterodimer of alpha chain and beta2-microglobulin; also called hFcRn
Description: SPR (Biacore), pH 7.0.
As to B1, the Kd is 11.1 nM. That is a double-digit nanomolar value. The same measure for B2: 140 nM; for B3: 130 nM.
